Substitutions are numbered along the chain they refer to.
B1: AX212 IgG2 (antibody, V domains shown)
VH: QVQLLESGGGLVQPGGSLRLSCKASGYTFSSYSFSWVRQAPGKGLEWIGYIDPGSGGTKYNQKFQGKATISRDNSKNTLYLQMNSLRAEDTAVYYCARQRVGYSLDYWGQGTLVTVSS
VL: EIVLTQSPATLSLSPGERATITCRASQYVGSYLNWYQQKPGQAPRLLIYDASNRATGIPARFSGSGSGTDFTLTISSLEPEDFAVYYCQVWDSSPPVVFGGGTKVEIK
B2: AX137 IgG2 (antibody, V domains shown)
VH: EVQLLESGGGLVQPGGSLRLSCKASGYTFSSYGMYWVRQAPGKGLEWIGWIDPGSGGTKYNEKFKGKATISRDNSKNTLYLQMNSLRAEDTAVYYCARERYGYYFDYWGQGTLVTVSS
VL: B1 VL with V29I, V90A
B3: AX132 IgG2 (antibody)
heavy: EVQLLESGGGLVQPGGSLRLSCKASGYTFSSYGMYWVRQAPGKGLEWIGWIDPGSGGTKYNEKFKGKATISRDNSKNTLYLQMNSLRAEDTAVYYCARERYGYYFDYWGQGTLVTVSSASTKGPSVFPLAPCSRSTSESTAALGCLVKDYFPEPVTVSWNSGALTSGVHTFPAVLQSSGLYSLSSVVTVPSSNFGTQTYTCNVDHKPSNTKVDKTVERKCCVECPPCPAPPVAGPSVFLFPPKPKDTLMISRTPEVTCVVVDVSHEDPEVQFNWYVDGVEVHNAKTKPREEQFNSTFRVVSVLTVVHQDWLNGKEYKCKVSNKGLPAPIEKTISKTKGQPREPQVYTLPPSREEMTKNQVSLTCLVKGFYPSDIAVEWESNGQPENNYKTTPPMLDSDGSFFLYSKLTVDKSRWQQGNVFSCSVMHEALHNHYTQKSLSLSPGK
VL: B1 VL
B4: AX114 IgG2 (antibody, V domains shown)
VH: B2 VH
VL: B1 VL with S31T, V98A
B5: AX211 IgG2 (antibody, V domains shown)
VH: B1 VH with S31R, Y32Q, S33G, S35T, Y50W, S55N, K59R, Q62E, Q65K, Q99Y
VL: B1 VL
B6: AX210 IgG2 (antibody, V domains shown)
VH: B1 VH with F34I, S35Y, Y50W, S55N, K59R, G66S, Q99A
VL: B1 VL
B7: AX213 IgG2 (antibody, V domains shown)
VH: B2 VH with S31R, M34I, Y35N, W50R, S55N, K59R, E99A, R100N, Y101D, Y104S
VL: EIVLTQSPATLSLSPGERATITCRASQYVGSYLNWYQQKPGQAPRLLIYDASNRATGIPARFSGSGSGTDFTLTISSLEPEDFAVYYCQVWDSSPPVVFGGGTKVEIKR
B8: AX114 Fab (Fab, V domains shown)
VH: B2 VH
VL: B1 VL with S31T, V98A
B9: AX139 Fab (Fab, V domains shown)
VH: B2 VH
VL: B1 VL with S52A
B10: AX137 Fab (Fab, V domains shown)
VH: B2 VH
VL: B1 VL with V29I, V90A
B11: AX132 Fab (Fab, V domains shown)
VH: B2 VH
VL: B7 VL
B12: AX212 Fab (Fab, V domains shown)
VH: B1 VH
VL: B1 VL
B13: AX211 Fab (Fab, V domains shown)
VH: B1 VH with S31R, Y32Q, S33G, S35T, Y50W, S55N, K59R, Q62E, Q65K, Q99Y
VL: B1 VL
B14: AX213 Fab (Fab, V domains shown)
VH: QVQLLESGGGLVQPGGSLRLSCKASGYTFSRYGINWVRQAPGKGLEWIGRIDPGNGGTRYNEKFKGKATISRDNSKNTLYLQMNSLRAEDTAVYYCARANDGYSFDYWGQGTLVTVSS
VL: B7 VL
B15: AX210 IgG2 (antibody, V domains shown)
VH: B1 VH with F34I, S35Y, Y50W, S55N, K59R, G66S, Q99A
VL: B1 VL
B16: AX114 IgG2 (antibody, V domains shown)
VH: B2 VH
VL: B1 VL with S31T, V98A
B17: AX212 IgG2 (antibody, V domains shown)
VH: B1 VH
VL: B1 VL
B18: AX211 IgG2 (antibody, V domains shown)
VH: B14 VH with Y32Q, I34F, N35T, R50W, A99Y, N100R, D101V, F105L
VL: B1 VL
B19: AX132 IgG2 (antibody)
heavy: B3 heavy
light: EIVLTQSPATLSLSPGERATITCRASQYVGSYLNWYQQKPGQAPRLLIYDASNRATGIPARFSGSGSGTDFTLTISSLEPEDFAVYYCQVWDSSPPVVFGGGTKVEIKRTVAAPSVFIFPPSDEQLKSGTASVVCLLNNFYPREAKVQWKVDNALQSGNSQESVTEQDSKDSTYSLSSTLTLSKADYEKHKVYACEVTHQGLSSPVTKSFNRGEC
B20: AX213 IgG2 (antibody, V domains shown)
VH: B14 VH with Q1E
VL: B7 VL

biological target: T1, murine PCSK9 (mouse, UniProt Q80W65 35-694, limits assumed); assay: cell-based or functional assay
T1 sequence (Q80W65 35-694 limits assumed): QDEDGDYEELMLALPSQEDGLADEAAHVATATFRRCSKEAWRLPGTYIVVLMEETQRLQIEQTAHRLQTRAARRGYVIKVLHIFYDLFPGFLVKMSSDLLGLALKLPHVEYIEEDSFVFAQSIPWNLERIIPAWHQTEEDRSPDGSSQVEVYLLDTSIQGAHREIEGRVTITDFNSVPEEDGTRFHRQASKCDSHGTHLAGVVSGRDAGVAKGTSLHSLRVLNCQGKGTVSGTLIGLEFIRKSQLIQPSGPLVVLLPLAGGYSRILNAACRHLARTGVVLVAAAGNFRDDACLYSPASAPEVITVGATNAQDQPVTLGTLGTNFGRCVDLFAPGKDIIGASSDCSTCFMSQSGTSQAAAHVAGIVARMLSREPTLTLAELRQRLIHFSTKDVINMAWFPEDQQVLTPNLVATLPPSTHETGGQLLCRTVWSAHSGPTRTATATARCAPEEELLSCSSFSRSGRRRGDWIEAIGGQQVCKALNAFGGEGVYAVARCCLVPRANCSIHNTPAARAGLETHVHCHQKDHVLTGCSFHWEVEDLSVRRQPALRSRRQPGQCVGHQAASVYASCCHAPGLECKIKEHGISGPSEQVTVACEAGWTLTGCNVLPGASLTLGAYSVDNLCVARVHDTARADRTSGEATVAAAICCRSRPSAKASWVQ

IgG2 IC50 (nM), inhibition of PCSK9 (LDL uptake assay) [nM] | Binder
7.3 | B1
5.3 | B2
9.4 | B3
27.4 | B4
11.1 | B5
15.9 | B6
7 | B7

biological target: T2, rhesus PCSK9 (rhesus, UniProt A8T666 31-692, limits assumed); assay: cell-based or functional assay
T2 sequence (A8T666 31-692 limits assumed): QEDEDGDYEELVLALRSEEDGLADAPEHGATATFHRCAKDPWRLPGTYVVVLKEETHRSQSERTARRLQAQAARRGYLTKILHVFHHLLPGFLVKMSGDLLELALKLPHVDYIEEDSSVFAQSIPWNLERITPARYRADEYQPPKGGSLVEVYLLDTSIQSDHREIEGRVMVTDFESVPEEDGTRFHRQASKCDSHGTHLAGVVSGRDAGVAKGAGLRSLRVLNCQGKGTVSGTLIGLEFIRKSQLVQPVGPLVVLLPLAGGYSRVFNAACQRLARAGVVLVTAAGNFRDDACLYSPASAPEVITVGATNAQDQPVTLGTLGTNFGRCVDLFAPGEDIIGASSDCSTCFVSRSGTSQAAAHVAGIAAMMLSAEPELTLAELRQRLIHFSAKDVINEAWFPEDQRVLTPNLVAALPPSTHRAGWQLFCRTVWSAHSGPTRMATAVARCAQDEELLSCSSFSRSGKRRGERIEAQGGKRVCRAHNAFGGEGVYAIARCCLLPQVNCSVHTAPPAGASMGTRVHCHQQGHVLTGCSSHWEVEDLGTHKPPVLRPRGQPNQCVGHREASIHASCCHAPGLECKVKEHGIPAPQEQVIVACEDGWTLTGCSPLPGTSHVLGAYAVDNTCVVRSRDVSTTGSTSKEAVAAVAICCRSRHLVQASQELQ

IgG2 IC50 (nM), inhibition of PCSK9 (LDL uptake assay) [nM] | Binder
4.7 | B1
10 | B2
11.5 | B3
14.4 | B4
4.4 | B5
9.7 | B6
10.2 | B7

biological target: T3, human PCSK9 (human, UniProt Q8NBP7 31-692); assay: cell-based or functional assay
T3 sequence (Q8NBP7 31-692 limits assumed): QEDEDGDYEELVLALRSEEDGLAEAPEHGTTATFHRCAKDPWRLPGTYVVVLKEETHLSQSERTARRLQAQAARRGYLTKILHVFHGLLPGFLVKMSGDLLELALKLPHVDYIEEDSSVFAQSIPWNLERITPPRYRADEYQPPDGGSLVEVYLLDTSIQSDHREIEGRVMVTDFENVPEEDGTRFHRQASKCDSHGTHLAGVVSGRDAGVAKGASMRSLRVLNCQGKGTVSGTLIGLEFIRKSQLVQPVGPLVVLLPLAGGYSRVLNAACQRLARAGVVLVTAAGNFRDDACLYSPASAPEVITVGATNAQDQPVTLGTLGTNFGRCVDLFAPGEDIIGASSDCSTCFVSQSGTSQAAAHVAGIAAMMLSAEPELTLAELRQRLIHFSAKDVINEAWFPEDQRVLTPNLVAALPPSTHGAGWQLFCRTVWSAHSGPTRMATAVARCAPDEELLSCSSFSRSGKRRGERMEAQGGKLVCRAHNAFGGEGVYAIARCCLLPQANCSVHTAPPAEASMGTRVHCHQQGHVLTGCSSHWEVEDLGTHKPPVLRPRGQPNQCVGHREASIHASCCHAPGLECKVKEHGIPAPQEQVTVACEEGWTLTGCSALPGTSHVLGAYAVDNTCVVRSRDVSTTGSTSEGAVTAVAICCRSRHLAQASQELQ

IgG2 IC50 (nM), inhibition of PCSK9 (LDL uptake assay) [nM] | Binder
9.5 | B1
9.8 | B2
8.9 | B3
36.6 | B4
7.5 | B5
6.5 | B6
11.1 | B7

biological target: T1, murine PCSK9; assay: cell-based or functional assay; remark: another data set of the same source

Fab IC50 (nM), inhibition of PCSK9 on LDL uptake [nM] | Binder
326 | B8
22.9 | B9
27.4 | B10
26.9 | B11

biological target: T2, rhesus PCSK9; assay: cell-based or functional assay; remark: another data set of the same source

Fab IC50 (nM), inhibition of PCSK9 on LDL uptake [nM] | Binder
194 | B8

biological target: T3, human PCSK9; assay: cell-based or functional assay; remark: another data set of the same source

Fab IC50 (nM), inhibition of PCSK9 on LDL uptake [nM] | Binder
179 | B8
37.7 | B9
13.8 | B12
74.4 | B10
12.6 | B13
62.2 | B11
14.7 | B14

biological target: T4, Mouse PCSK9 (mouse, UniProt Q80W65 35-694, limits assumed); assay: Biacore (SPR), IgG2 captured, PCSK9 as analyte
T4 construct: Column head prints 'Mouse 9'; also called Mouse 9; mPCSK9
T4 sequence (Q80W65 35-694 limits assumed): as the sequence (Q80W65 35-694 limits assumed) above

Kd [nM] | Binder
3.6 | B15
11.2 | B16
2.74 | B17
1.66 | B18
2.76 | B19
3.25 | B20

biological target: rat PCSK9 (rat, UniProt P59996 31-691, limits assumed); assay: Biacore (SPR), IgG2 captured, PCSK9 as analyte
Sequence (P59996 31-691 limits assumed): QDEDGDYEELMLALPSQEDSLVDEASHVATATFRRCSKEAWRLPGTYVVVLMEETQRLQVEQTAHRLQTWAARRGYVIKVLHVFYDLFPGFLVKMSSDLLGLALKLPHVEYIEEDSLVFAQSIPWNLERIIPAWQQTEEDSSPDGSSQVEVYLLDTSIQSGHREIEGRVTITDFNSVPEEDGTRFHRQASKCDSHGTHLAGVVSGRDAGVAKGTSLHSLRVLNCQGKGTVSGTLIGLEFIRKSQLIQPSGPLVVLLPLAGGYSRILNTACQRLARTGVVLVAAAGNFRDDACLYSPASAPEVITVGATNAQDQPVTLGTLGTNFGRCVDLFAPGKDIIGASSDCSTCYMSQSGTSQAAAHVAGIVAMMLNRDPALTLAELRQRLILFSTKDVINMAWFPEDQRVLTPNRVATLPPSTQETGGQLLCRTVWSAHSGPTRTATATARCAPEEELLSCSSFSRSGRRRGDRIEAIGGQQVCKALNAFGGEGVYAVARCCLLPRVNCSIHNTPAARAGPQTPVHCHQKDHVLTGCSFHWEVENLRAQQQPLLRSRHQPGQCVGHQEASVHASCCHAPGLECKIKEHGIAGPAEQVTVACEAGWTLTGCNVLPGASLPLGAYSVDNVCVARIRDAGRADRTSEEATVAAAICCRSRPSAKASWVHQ

Kd [nM] | Binder
~100 | B19

biological target: T5, human PCSK9 (human, UniProt Q8NBP7 31-692); assay: Biacore (SPR), IgG2 captured, PCSK9 as analyte
T5 construct: also called hPCSK9
T5 sequence (Q8NBP7 31-692 limits assumed): as the sequence (Q8NBP7 31-692 limits assumed) above

Kd [nM] | Binder
2.64 | B15
24 | B16
2.12 | B17
1.63 | B18
2.07 | B20

biological target: T6, Rhesus PCSK9 (rhesus, UniProt A8T666 31-692, limits assumed); assay: Biacore (SPR), IgG2 captured, PCSK9 as analyte
T6 construct: also called rhPCSK9
T6 sequence (A8T666 31-692 limits assumed): as the sequence (A8T666 31-692 limits assumed) above

Kd [nM] | Binder
0.944 | B15
11.6 | B16
0.774 | B17
0.493 | B18
1.89 | B20
